Laboratory results: patent US20260201396, “New LoxPsym Sites for Large-Scale Orthogonal Cre-Mediated Recombination” (VIB VZW, published 2026)

T1: Cre recombinase (Punavirus P1)
T1 chain: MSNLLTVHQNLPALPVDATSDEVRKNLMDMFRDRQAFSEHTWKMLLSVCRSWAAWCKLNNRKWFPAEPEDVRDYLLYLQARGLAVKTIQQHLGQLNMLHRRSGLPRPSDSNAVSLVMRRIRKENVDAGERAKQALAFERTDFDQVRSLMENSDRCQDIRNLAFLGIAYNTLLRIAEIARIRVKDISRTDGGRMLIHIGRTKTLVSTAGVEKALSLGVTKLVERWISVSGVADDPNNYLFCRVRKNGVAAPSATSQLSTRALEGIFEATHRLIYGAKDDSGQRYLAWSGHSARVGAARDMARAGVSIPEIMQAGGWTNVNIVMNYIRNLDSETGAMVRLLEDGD


Molecular target: T1, Cre recombinase
Experiment: cell_activity; as above
Text: Similar to the development of the original LoxPsym site by Hoess et al. (1986 J Cell Biochem), we edited the spacer of the LoxP site to obtain new non-directional recombination sites. In doing so, we focused on altering the first three nucleotides of the spacer (FIG. 2), as it was shown before that changing the nucleotides at position 4 and 5 of the spacer (T and A respectively) prevents recombination (Hoess et al 1986). The last three nucleotides were adapted accordingly to ensure the spacer remained palindromic. As such, we were able to design maximally 63 new potential LoxPsym sites. To test if the Cre enzyme was still able to recombine the new LoxPsym variants, we conducted a fluorescent-based assay in yeast via genomic integration of a fluorescence cassette which was flanked by identical LoxPsym variants at both sites (FIGS. 3A and 3C). Recombination of functional LoxPsym variants enables the deletion of the fluorescence cassette. The fraction of non-fluorescent cells in the population after induction of Cre-mediated recombination, was used to determine the recombination efficiency of the new LoxPsym sites. To verify if this set-up is valid for estimation of the recombination efficiency, the dual-fluorescent-reporter system shown in FIG. 3A was used to assess the frequency of inversion/deletion over time. […] Recombination efficiencies largely altered between different LoxPsym variants (Table 1). 63 new LoxPsym variants were obtained with altering recombination efficiencies ranging from 13% to 89%.

Binder | activity [%]
LoxPsym-ACT (dsDNA) DNA 1: ATAACTTCGTATAACTTAAGTTATACGAAGTTAT DNA 2: ATAACTTCGTATAACTTAAGTTATACGAAGTTAT | 70.5
LoxPsym-GCT (dsDNA) DNA 1: ATAACTTCGTATAGCTTAAGCTATACGAAGTTAT DNA 2: ATAACTTCGTATAGCTTAAGCTATACGAAGTTAT | 37.2
LoxPsym-GCG (dsDNA) DNA 1: ATAACTTCGTATAGCGTACGCTATACGAAGTTAT DNA 2: ATAACTTCGTATAGCGTACGCTATACGAAGTTAT | 79.2
LoxPsym-GAT (dsDNA) DNA 1: ATAACTTCGTATAGATTAATCTATACGAAGTTAT DNA 2: ATAACTTCGTATAGATTAATCTATACGAAGTTAT | 36.9
LoxPsym-AAT (dsDNA) DNA 1: ATAACTTCGTATAAATTAATTTATACGAAGTTAT DNA 2: ATAACTTCGTATAAATTAATTTATACGAAGTTAT | 71.1
LoxPsym-TTA (dsDNA) DNA 1: ATAACTTCGTATATTATATAATATACGAAGTTAT DNA 2: ATAACTTCGTATATTATATAATATACGAAGTTAT | 35.8
LoxPsym-TAT (dsDNA) DNA 1: ATAACTTCGTATATATTAATATATACGAAGTTAT DNA 2: ATAACTTCGTATATATTAATATATACGAAGTTAT | 89.3
LoxPsym-TAG (dsDNA) DNA 1: ATAACTTCGTATATAGTACTATATACGAAGTTAT DNA 2: ATAACTTCGTATATAGTACTATATACGAAGTTAT | 70.3
LoxPsym-TTG (dsDNA) DNA 1: ATAACTTCGTATATTGTACAATATACGAAGTTAT DNA 2: ATAACTTCGTATATTGTACAATATACGAAGTTAT | 80.6
LoxPsym-CGC (dsDNA) DNA 1: ATAACTTCGTATACGCTAGCGTATACGAAGTTAT DNA 2: ATAACTTCGTATACGCTAGCGTATACGAAGTTAT | 69.4
LoxPsym-GGT (dsDNA) DNA 1: ATAACTTCGTATAGGTTAACCTATACGAAGTTAT DNA 2: ATAACTTCGTATAGGTTAACCTATACGAAGTTAT | 38
LoxPsym-TCC (dsDNA) DNA 1: ATAACTTCGTATATCCTAGGATATACGAAGTTAT DNA 2: ATAACTTCGTATATCCTAGGATATACGAAGTTAT | 80
LoxPsym-TGC (dsDNA) DNA 1: ATAACTTCGTATATGCTAGCATATACGAAGTTAT DNA 2: ATAACTTCGTATATGCTAGCATATACGAAGTTAT | 72
LoxPsym-CCG (dsDNA) DNA 1: ATAACTTCGTATACCGTACGGTATACGAAGTTAT DNA 2: ATAACTTCGTATACCGTACGGTATACGAAGTTAT | 76
LoxPsym-TAC (dsDNA) DNA 1: ATAACTTCGTATATACTAGTATATACGAAGTTAT DNA 2: ATAACTTCGTATATACTAGTATATACGAAGTTAT | 75.3
LoxPsym-CAG (dsDNA) DNA 1: ATAACTTCGTATACAGTACTGTATACGAAGTTAT DNA 2: ATAACTTCGTATACAGTACTGTATACGAAGTTAT | 79.9
LoxPsym-CAT (dsDNA) DNA 1: ATAACTTCGTATACATTAATGTATACGAAGTTAT DNA 2: ATAACTTCGTATACATTAATGTATACGAAGTTAT | 79.1
LoxPsym-CGG (dsDNA) DNA 1: ATAACTTCGTATACGGTACCGTATACGAAGTTAT DNA 2: ATAACTTCGTATACGGTACCGTATACGAAGTTAT | 81.5
LoxPsym-GGA (dsDNA) DNA 1: ATAACTTCGTATAGGATATCCTATACGAAGTTAT DNA 2: ATAACTTCGTATAGGATATCCTATACGAAGTTAT | 37.1
LoxPsym-TGT (dsDNA) DNA 1: ATAACTTCGTATATGTTAACATATACGAAGTTAT DNA 2: ATAACTTCGTATATGTTAACATATACGAAGTTAT | 82.4
